For data set [1], the system named is HeLa Kyoto. As to the kind of experiment: solubility in G1/S (NP-40 vs SDS abundance) (log2 ratio); higher = more soluble. The note with it: cell cycle stage: G1/S.
Data set [2] has as its system HeLa Kyoto. Briefly: melting temperature (median over replicates), in situ; higher = more thermally stable.
Data set [3] has as its system HeLa Kyoto. As to the kind of experiment: solubility change mitosis vs G1/S (difference of NP-40 vs SDS log2 ratios) (log2 ratio difference); higher = more soluble in mitosis.
The subject of data set [4] is HeLa Kyoto. Briefly: thermal stability score vs G1/S (z-score of summed log2 fold changes over temperatures); higher = more thermally stable than in G1/S.
Setting [5] is: cell cycle stage: early G1 (4.5 h after nocodazole release).
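Throughout, for melting temperature (median over replicates), in situ: HeLa Kyoto cells synchronized by double thymidine or nocodazole block, proteins quantified by TMT10plex mass spectrometry, three independent biological replicates.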
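Throughout, for solubility change mitosis vs G1/S (difference of NP-40 vs SDS log2 ratios): synchronized HeLa Kyoto cells (double thymidine block for G1/S, nocodazole release for mitosis), protein amounts in NP-40 versus SDS lysates quantified by mass spectrometry, three biological replicates.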
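Throughout, for solubility in G1/S (NP-40 vs SDS abundance): HeLa Kyoto cells arrested at G1/S by double thymidine block, proteins quantified by TMT10plex mass spectrometry in mild NP-40 versus SDS extracts, three biological replicates.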
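Throughout, for thermal stability score vs G1/S (z-score of summed log2 fold changes over temperatures): synchronized HeLa Kyoto cells, proteins quantified by TMT10plex mass spectrometry, three biological replicates, mitosis taken 0.5 h after nocodazole release, G1/S directly after double thymidine block.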

Chain of SLC38A10 (chain, as listed by the source): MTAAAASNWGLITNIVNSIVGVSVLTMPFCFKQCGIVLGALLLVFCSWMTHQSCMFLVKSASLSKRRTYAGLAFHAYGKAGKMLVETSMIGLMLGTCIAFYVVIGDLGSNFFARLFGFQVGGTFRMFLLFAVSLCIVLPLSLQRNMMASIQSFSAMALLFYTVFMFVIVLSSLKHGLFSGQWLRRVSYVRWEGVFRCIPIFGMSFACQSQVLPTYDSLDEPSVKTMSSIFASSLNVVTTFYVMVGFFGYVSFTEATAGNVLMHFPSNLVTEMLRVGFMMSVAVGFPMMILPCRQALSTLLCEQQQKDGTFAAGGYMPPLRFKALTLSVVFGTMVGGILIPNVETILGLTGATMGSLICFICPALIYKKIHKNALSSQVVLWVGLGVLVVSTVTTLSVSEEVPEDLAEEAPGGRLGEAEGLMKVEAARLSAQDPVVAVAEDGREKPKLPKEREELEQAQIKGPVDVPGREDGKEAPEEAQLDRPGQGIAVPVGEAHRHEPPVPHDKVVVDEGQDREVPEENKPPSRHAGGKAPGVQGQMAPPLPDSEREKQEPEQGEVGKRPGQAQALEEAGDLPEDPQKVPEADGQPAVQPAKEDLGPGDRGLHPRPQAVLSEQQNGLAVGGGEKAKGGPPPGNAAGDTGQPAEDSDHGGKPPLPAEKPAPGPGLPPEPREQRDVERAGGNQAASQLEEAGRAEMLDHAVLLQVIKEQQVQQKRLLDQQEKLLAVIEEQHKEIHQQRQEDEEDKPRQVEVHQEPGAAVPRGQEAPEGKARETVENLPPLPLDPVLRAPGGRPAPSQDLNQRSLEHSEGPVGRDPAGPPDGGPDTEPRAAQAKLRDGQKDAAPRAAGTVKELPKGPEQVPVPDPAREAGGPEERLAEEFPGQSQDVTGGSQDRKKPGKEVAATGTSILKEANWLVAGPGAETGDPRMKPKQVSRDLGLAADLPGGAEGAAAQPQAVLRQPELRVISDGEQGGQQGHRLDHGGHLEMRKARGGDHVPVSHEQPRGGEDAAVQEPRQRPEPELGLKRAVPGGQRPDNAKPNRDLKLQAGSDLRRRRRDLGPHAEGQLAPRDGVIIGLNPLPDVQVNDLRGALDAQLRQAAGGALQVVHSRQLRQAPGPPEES

As to “MLEEAGEVLENMLKASCLPLGFIVFLPAVLLLVAPPLPAADAAHEFTVYRMQQYDLQGQPYGTRNAVLNTEARTMAAEVLSRRCVLMRLLDFSYEQYQKALRQSAGAVVIILPRAMAAVPQDVVRQFMEIEPEMLAMETAVPVYFAVEDEALLSIYKQTQAASASQGSASAAEVLLRTATANGFQMVTSGVQSKAVSDWLIASVEGRLTGLGGEDLPTIVIVAHYDAFGVAPWLSLGADSNGSGVSVLLELARLFSRLYTYKRTHAAYNLLFFASGGGKFNYQGTKRWLEDNLDHTDSSLLQDNVAFVLCLDTVGRGSSLHLHVSKPPREGTLQHAFLRELETVAAHQFPEVRFSMVHKRINLAEDVLAWEHERFAIRRLPAFTLSHLESHRDGQRSSIMDVRSRVDSKTLTRNTRIIAEALTRVIYNLTEKGTPPDMPVFTEQMQIQQEQLDSVMDWLTNQPRAAQLVDKDSTFLSTLEHHLSRYLKDVKQHHVKADKRDPEFVFYDQLKQVMNAYRVKPAVFDLLLAVGIAAYLGMAYVAVQHFSLLYKTVQRLLVKAKTQ [NCLN]”, the “solubility in G1/S (log2)” value in data set [1] stood at 0.0995. The values for the melting temperature in data set [2] (cell cycle stage: G1/S) and in data set [2] (cell cycle stage: mitosis) were 53.9 °C and 53.7 °C, respectively. Also, the “solubility change mitosis (log2)” value in data set [3] was -0.129. In addition, the thermal stability score amounted to 2.71 in data set [4] (setting [5]) and 3.43 in data set [4] (cell cycle stage: mitosis).
“MQDTGSVVPLHWFGFGYAALVASGGIIGYVKAGSVPSLAAGLLFGSLAGLGAYQLSQDPRNVWVFLATSGTLAGIMGMRFYHSGKFMPAGLIAGASLLMVAKVGVSMFNRPH [TMEM14C]”: the “solubility in G1/S (log2)” value in data set [1] was 0.356. Moreover, the melting temperature in data set [2] (cell cycle stage: mitosis) was determined as 54.3 °C. The “solubility change mitosis (log2)” value in data set [3] is 0.206. Moreover, the thermal stability score in data set [4] (setting [5]) is -3.8e-18; in data set [4] (cell cycle stage: mitosis) it was -4.49e-20.
“MYTFVVRDENSSVYAEVSRLLLATGHWKRLRRDNPRFNLMLGERNRLPFGRLGHEPGLVQLVNYYRGADKLCRKASLVKLIKTSPELAESCTWFPESYVIYPTNLKTPVAPAQNGIQPPISNSRTDEREFFLASYNRKKEDGEGNVWIAKSSAGAKGEGILISSEASELLDFIDNQGQVHVIQKYLEHPLLLEPGHRKFDIRSWVLVDHQYNIYLYREGVLRTASEPYHVDNFQDKTCHLTNHCIQKEYSKNYGKYEEGNEMFFKEFNQYLTSALNITLESSILLQIKHIIRNCLLSVEPAISTKHLPYQSFQLFGFDFMVDEELKVWLIEVNGAPACAQKLYAELCQGIVDIAISSVFPPPDVEQPQTQPAAFIKL [TTL]”: the “solubility in G1/S (log2)” value in data set [1] turned out to be 0.146. Also, the melting temperature in data set [2] (cell cycle stage: G1/S) was 53.9 °C; in data set [2] (cell cycle stage: mitosis), 53.4 °C. Besides, the “solubility change mitosis (log2)” value in data set [3] was -0.197. Moreover, the thermal stability score in data set [4] (setting [5]) was 0.614; in data set [4] (cell cycle stage: mitosis) it was -0.119.
Regarding “MFPFYSCWRTGLLLLLLAVAVRESWQTEEKTCDLVGEKGKESEKELALVKRLKPLFNKSFESTVGQGSDTYIYIFRVCREAGNHTSGAGLVQINKSNGKETVVGRLNETHIFNGSNWIMLIYKGGDEYDNHCGKEQRRAVVMISCNRHTLADNFNPVSEERGKVQDCFYLFEMDSSLACSPEISHLSVGSILLVTFASLVAVYVVGGFLYQRLVVGAKGMEQFPHLAFWQDLGNLVADGCDFVCRSKPRNVPAAYRGVGDDQLGEESEERDDHLLPM [M6PR]”, in data set [1], the “solubility in G1/S (log2)” value is 0.0483. Also, the melting temperature in data set [2] (cell cycle stage: G1/S) was 60.3 °C; in data set [2] (cell cycle stage: mitosis) it was 59.1 °C. For the same substance, the “solubility change mitosis (log2)” value in data set [3] was -0.128. Besides, the values for the thermal stability score in data set [4] (setting [5]) and in data set [4] (cell cycle stage: mitosis) were -1.67 and -2.67, respectively.
Consider “MADLSLADALTEPSPDIEGEIKRDFIATLEAEAFDDVVGETVGKTDYIPLLDVDEKTGNSESKKKPCSETSQIEDTPSSKPTLLANGGHGVEGSDTTGSPTEFLEEKMAYQEYPNSQNWPEDTNFCFQPEQVVDPIQTDPFKMYHDDDLADLVFPSSATADTSIFAGQNDPLKDSYGMSPCNTAVVPQGWSVEALNSPHSESFVSPEAVAEPPQPTAVPLELAKEIEMASEERPPAQALEIMMGLKTTDMAPSKETEMALAKDMALATKTEVALAKDMESPTKLDVTLAKDMQPSMESDMALVKDMELPTEKEVALVKDVRWPTETDVSSAKNVVLPTETEVAPAKDVTLLKETERASPIKMDLAPSKDMGPPKENKKETERASPIKMDLAPSKDMGPPKENKIVPAKDLVLLSEIEVAQANDIISSTEISSAEKVALSSETEVALARDMTLPPETNVILTKDKALPLEAEVAPVKDMAQLPETEIAPAKDVAPSTVKEVGLLKDMSPLSETEMALGKDVTPPPETEVVLIKNVCLPPEMEVALTEDQVPALKTEAPLAKDGVLTLANNVTPAKDVPPLSETEATPVPIKDMEIAQTQKGISEDSHLESLQDVGQSAAPTFMISPETVTGTGKKCSLPAEEDSVLEKLGERKPCNSQPSELSSETSGIARPEEGRPVVSGTGNDITTPPNKELPPSPEKKTKPLATTQPAKTSTSKAKTQPTSLPKQPAPTTIGGLNKKPMSLASGLVPAAPPKRPAVASARPSILPSKDVKPKPIADAKAPEKRASPSKPASAPASRSGSKSTQTVAKTTTAAAVASTGPSSRSPSTLLPKKPTAIKTEGKPAEVKKMTAKSVPADLSRPKSTSTSSMKKTTTLSGTAPAAGVVPSRVKATPMPSRPSTTPFIDKKPTSAKPSSTTPRLSRLATNTSAPDLKNVRSKVGSTENIKHQPGGGRAKVEKKTEAAATTRKPESNAVTKTAGPIASAQKQPAGKVQIVSKKVSYSHIQSKCGSKDNIKHVPGGGNVQIQNKKVDISKVSSKCGSKANIKHKPGGGDVKIESQKLNFKEKAQAKVGSLDNVGHLPAGGAVKTEGGGSEAPLCPGPPAGEEPAISEAAPEAGAPTSASGLNGHPTLSGGGDQREAQTLDSQIQETSI [MAP4]”, for which the “solubility in G1/S (log2)” value in data set [1] was 0.265. This substance returned a melting temperature in data set [2] (cell cycle stage: G1/S) of 59 °C. In addition, the “solubility change mitosis (log2)” value in data set [3] was -0.0455. The thermal stability score is -3.19 in data set [4] (setting [5]) and -3.41 in data set [4] (cell cycle stage: mitosis).
Turning to SLC38A10, in data set [1], the “solubility in G1/S (log2)” value is -0.351. The melting temperature in data set [2] (cell cycle stage: G1/S) came to 54.2 °C; in data set [2] (cell cycle stage: mitosis) it was 54.7 °C. In data set [3], the “solubility change mitosis (log2)” value is 0.284. Moreover, the values for the thermal stability score in data set [4] (setting [5]) and in data set [4] (cell cycle stage: mitosis) were 2.59 and 0.548, respectively.
With “MANVPWAEVCEKFQAALALSRVELHKNPEKEPYKSKYSARALLEEVKALLGPAPEDEDERPEAEDGPGAGDHALGLPAEVVEPEGPVAQRAVRLAVIEFHLGVNHIDTEELSAGEEHLVKCLRLLRRYRLSHDCISLCIQAQNNLGILWSEREEIETAQAYLESSEALYNQYMKEVGSPPLDPTERFLPEEEKLTEQERSKRFEKVYTHNLYYLAQVYQHLEMFEKAAHYCHSTLKRQLEHNAYHPIEWAINAATLSQFYINKLCFMEARHCLSAANVIFGQTGKISATEDTPEAEGEVPELYHQRKGEIARCWIKYCLTLMQNAQLSMQDNIGELDLDKQSELRALRKKELDEEESIRKKAVQFGTGELCDAISAVEEKVSYLRPLDFEEARELFLLGQHYVFEAKEFFQIDGYVTDHIEVVQDHSALFKVLAFFETDMERRCKMHKRRIAMLEPLTVDLNPQYYLLVNRQIQFEIAHAYYDMMDLKVAIADRLRDPDSHIVKKINNLNKSALKYYQLFLDSLRDPNKVFPEHIGEDVLRPAMLAKFRVARLYGKIITADPKKELENLATSLEHYKFIVDYCEKHPEAAQEIEVELELSKEMVSLLPTKMERFRTKMALT [KIF1BP]”, the “solubility in G1/S (log2)” value in data set [1] was 0.141. For the same substance, the melting temperature in data set [2] (cell cycle stage: G1/S) and in data set [2] (cell cycle stage: mitosis) was 49 °C each time. The “solubility change mitosis (log2)” value in data set [3] is -0.161. Moreover, the values for the thermal stability score in data set [4] (setting [5]) and in data set [4] (cell cycle stage: mitosis) were 0.769 and 2.03, respectively.

These data come from the supplement of paper PMC5998384.
